Measured values: paper PMC2690590 (2009)

Target: DR1: DRA*0101(1–191)/DRB1*0101(1–198) (human)

B1: C-terminal fragment of the invariant chain (positions 118–208), devoid of CLIP (domain or fragment)
chain: LPMGALPQGPMQNATKYGNMTEDHVMHLLQNADPLKVYPPLKGSFPENLRHLKNTMETIDWKVFESWMHHWLLFEMSRHSLEQKPTDAPPK
B1 showed an IC50 of 1700 nM.

B2: recombinant extracellular part of human invariant chain (positions 73–208) (domain or fragment)
chain: QQQGRLDKLTVTSQNLQLENLRMKLPKPPKPVSKMRMATPLLMQALPMGALPQGPMQNATKYGNMTEDHVMHLLQNADPLKVYPPLKGSFPENLRHLKNTMETIDWKVFESWMHHWLLFEMSRHSLEQKPTDAPPK
B2 was tested, and the IC50 was 40 nM.

LPKPPKPVSKMRMATPLLMQALPM [CLIP peptide fragment of the invariant chain (positions 97–120)] showed an IC50 of 40 nM.

For PKYVKQNTLKLAT [influenza hemagglutinin peptide HA306–318], the IC50 was 34 nM.
